Experimental data as given in patent publication US20210403541A1 (Merck Sharp & Dohme, published 2021).
Non-standard residues stand in square brackets, D forms with d. No end group written: not given here. pS = N[C@@H](COP(=O)(O)O)C(=O)O

T1: pS396/400/404GC (84AWK) (human, phosphoserines at 396, 400 and 404 of tau, printed GCRENAKAKTDHGAEIVYK(pS)PVV(pS)GDT(pS)PRHL)
T1 construct: also called T-pS396/400/404GC
T1 peptide: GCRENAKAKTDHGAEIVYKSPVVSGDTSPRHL

T2: pT212/pS214GC (69AXY) (human, phosphothreonine 212 and phosphoserine 214 of tau, printed GCGSPGTPGSRSR(pT)P(pS)LPTPPTREPK)
T2 construct: also called T-pT212pS214GC
T2 peptide: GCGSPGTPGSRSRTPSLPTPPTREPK

T3: pSer412Cys (74AXY) (human)
T3 peptide: NV[pS]STGSC


Legend:
[1] = biological target: T1, pS396/400/404GC (84AWK); assay: peptide-coated ELISA (1 µg/ml peptide 84AWK coat, anti-human IgG-HRP, ABTS, OD405)
Protocol: (§1) Binding specificity of the high affinity antibodies described herein was assessed with various tau peptides by a peptide-coated ELISA. Plates were coated with 50 μl of 1 μg/ml peptides 69AXY, 70AXY, 74AXY, 84AWK, 25AWF, or 24AWF in PBS for overnight at 4° C. On the next day, the plates were washed 3 times, blocked with 200 μl of superblock for 1 hr at room temperature, then washed 3 times again. Antibodies were diluted at 1:5 serial dilution in ELISA buffer starting from 10 μg/ml. The plates were incubated with 50 μl of serially diluted antibodies at room temperature for 1 hr and washed 3 times.

[2] = biological target: human FcRn (human, UniProt P55899 24-297; P61769 21-119, limits assumed); assay: SPR (Biacore), antibody captured by anti-human kappa, FcRn injected, pH 6.0, steady-state fit; pH 6.0
Protocol: (§2) Anti-human kappa antibody was amine coupled to a CMS chip. Each antibody was captured to 200-300 RUs. Binding assays were performed using PBS running buffer containing 0.05% Tween-20, adjusted to either pH 6.0 or 7.4. Titration samples were also prepared using the corresponding pH buffer for the assay. Titrating concentrations (1200 nM top, 6-point, 3-fold dilution series and two zeros) of human or cyno FcRn were injected over the captured mAbs. Each sample injection was followed by two 30-second injections of 10 mM glycine, pH 1.5 and a 12-second injection of 10 mM NaOH to regenerate the surface for subsequent antibody capture and injection. All assays were run on Biacore T200 and/or 4000 instruments (GE Healthcare) and the data were fit to a steady-state approximation model using Biaevaluation software. Affinity at pH 6.0 was calculated as equivalent to concentration at half maximal binding signal in the steady-state approximation (TABLE 9).

[3] = biological target: cynomolgus monkey (cyno) FcRn (cynomolgus monkey, UniProt Q8SPV9 24-297; Q8SPW0 21-119, limits assumed); assay: as above
Protocol: as §2

[4] = biological target: T2, pT212/pS214GC (69AXY); assay: peptide-coated ELISA (1 µg/ml peptide 69AXY coat, anti-human IgG-HRP, ABTS, OD405)
Protocol: as §1

[5] = biological target: T3, pSer412Cys (74AXY); assay: peptide-coated ELISA (1 µg/ml peptide 74AXY coat, anti-human IgG-HRP, ABTS, OD405)
Protocol: as §1

[6] = biological target: T4, phosphorylated tau protein monomer (35 AWM); assay: competitive ELISA, phosphorylated tau protein monomer 35 AWM (1 ng)
T4 construct: also called recombinant phosphorylated tau protein monomer

[7] = biological target: T5, tau species in CSF of African Green Monkeys (African Green Monkey); assay: competitive ELISA, fresh AGM CSF (75 µl of neat CSF)
T5 construct: also called Fresh African Green Monkey (AGM) CSF
Protocol: (§3) Binding affinities of various anti-tau-pS413 antibodies described herein for endogenous tau species were determined in brain homogenates and CSF samples from AD patients and preclinical models. Briefly, samples were pre-incubated with different concentrations of various anti-tau-pS413 antibodies, or respective isotype controls. Following a one-hour pre-incubation period, the antigen-antibody (Ag-Ab) mixture was added to plates pre-coated with a total tau capture antibody (Innotest ELISA kit).

[8] = biological target: T6, tau species in brain homogenates from mutant tau mice (rTg(tauP301L)4510), sarkosyl insoluble tau seeds; assay: competitive ELISA, tau mutant mice brain SI tau seeds (4 ng protein)
T6 construct: also called Tau mutant mice brain; SI Tau seeds
Protocol: as §3
Tissue homogenates were prepared using 1% sarkosyl buffer with several high-speed centrifugation steps to enrich for insoluble proteins including tau.

| Binder | binding result [1] | Human FcRn fold change (relative to HmzTa1505-hIgG4-S228P) [2] | Kd [2] | Cyno FcRn fold change (relative to HmzTa1505-hIgG4-S228P) [3] | Kd [3] | binding result [4] | binding result [5] | EC50 [6] | EC50 [7] | EC50 [8] |
| --- | --- | --- | --- | --- | --- | --- | --- | --- | --- | --- |
| V8-AFM-hIgG1-LALA (antibody, Human IgG1 L234A L235A/kappa; also called V8-AFM-IgG1-LALA) heavy: not shown light: DIVMTQSPLSLPVTLGEPASISCRSSQKIVHRNANTYLEWYLQKPGQSPQLLIYTVSNRFSGVPDRFSGSGSGTDFTLKISRVEAEDLGVYYCFQGSYLPLTFGGGTKVEIKRTVAAPSVFIFPPSDEQLKSGTASVVCLLNNFYPREAKVQWKVDNALQSGNSQESVTEQDSKDSTYSLSSTLTLSKADYEKHKVYACEVTHQGLSSPVTKSFNRGEC | no binding (tested: 10 µg/ml) | 1 fold | 230 nM | 1.6 fold | 160 nM | no binding (tested: 10 µg/ml) | no binding (tested: 10 µg/ml) | – | – | – |
| V8-AFM-hIgG4-S228P (antibody, also called V8-AFM-IgG4-S228P) heavy: not shown light: DIVMTQSPLSLPVTLGEPASISCRSSQKIVHRNANTYLEWYLQKPGQSPQLLIYTVSNRFSGVPDRFSGSGSGTDFTLKISRVEAEDLGVYYCFQGSYLPLTFGGGTKVEIKRTVAAPSVFIFPPSDEQLKSGTASVVCLLNNFYPREAKVQWKVDNALQSGNSQESVTEQDSKDSTYSLSSTLTLSKADYEKHKVYACEVTHQGLSSPVTKSFNRGEC | no binding (tested: 10 µg/ml) | 1 fold | 210 nM | 1 fold | 260 nM | no binding (tested: 10 µg/ml) | no binding (tested: 10 µg/ml) | – | – | – |
| HmzTa1505-hIgG4-S228P (antibody) heavy: not shown light: DIVMTQSPLSLPVTLGEPASISCRSSQNIVHSNANTYLEWYLQKPGQSPQLLIYTVSNRFSGVPDRFSGSGSGTDFTLKISRVEAEDLGVYYCFQGSHLPLTFGGGTKVEIKRTVAAPSVFIFPPSDEQLKSGTASVVCLLNNFYPREAKVQWKVDNALQSGNSQESVTEQDSKDSTYSLSSTLTLSKADYEKHKVYACEVTHQGLSSPVTKSFNRGEC | – | 1 fold | 220 nM | 1 fold | 260 nM | – | – | 6.73 nM | 2.08 nM | 0.67 nM |
| V8-AFM-hIgG1-LALA-YTE (antibody, Human IgG1 L234A L235A YTE/kappa; also called V8-AFM-IgG1-LALA-YTE) heavy: EVQLVESGGGLVQPGGSLRLSCAASGFTFSSFALNWVRQAPGKGLEWVGHIRSETNNYVTFYAASVKGRFTVSRDDSQNTAYLQMNSLKTEDTATYYCVRRGPRDSWFGYWGQGTLVTVSSASTKGPSVFPLAPSSKSTSGGTAALGCLVKDYFPEPVTVSWNSGALTSGVHTFPAVLQSSGLYSLSSVVTVPSSSLGTQTYICNVNHKPSNTKVDKKVEPKSCDKTHTCPPCPAPEAAGGPSVFLFPPKPKDTLYITREPEVTCVVVDVSHEDPEVKFNWYVDGVEVHNAKTKPREEQYNSTYRVVSVLTVLHQDWLNGKEYKCKVSNKALPAPIEKTISKAKGQPREPQVYTLPPSRDELTKNQVSLTCLVKGFYPSDIAVEWESNGQPENNYKTTPPVLDSDGSFFLYSKLTVDKSRWQQGNVFSCSVMHEALHNHYTQKSLSLSPGK light: DIVMTQSPLSLPVTLGEPASISCRSSQKIVHRNANTYLEWYLQKPGQSPQLLIYTVSNRFSGVPDRFSGSGSGTDFTLKISRVEAEDLGVYYCFQGSYLPLTFGGGTKVEIKRTVAAPSVFIFPPSDEQLKSGTASVVCLLNNFYPREAKVQWKVDNALQSGNSQESVTEQDSKDSTYSLSSTLTLSKADYEKHKVYACEVTHQGLSSPVTKSFNRGEC | no binding (tested: 10 µg/ml) | 6.5 fold | 34 nM | 11 fold | 24 nM | no binding (tested: 10 µg/ml) | no binding (tested: 10 µg/ml) | 0.055 nM | 0.008 nM | 0.004 nM |
| V5-AFM-hIgG4-S228P (antibody, V domains shown, also called V5-AFM-IgG4-S228P) VH: EVQLVESGGGLVQPGGSLRLSCAASGFTFSSFALNWVRQAPGKGLEWVGHIRSKTNNYVTFYAASVKGRFTVSRDDSQNTAYLQMNSLKTEDTATYYCVRRGPRDSWFGYWGQGTLVTVSS VL: DIVMTQSPLSLPVTLGEPASISCRSSQKIVHRNANTYLEWYLQKPGQSPQLLIYTVSNRFSGVPDRFSGSGSGTDFTLKISRVEAEDLGVYYCFQGSYLPLTFGGGTKVEIK | no binding (tested: 10 µg/ml) | – | – | – | – | no binding (tested: 10 µg/ml) | no binding (tested: 10 µg/ml) | – | – | – |
